Test results: article PMC9321335, “Palmitic Acid-Conjugated Radiopharmaceutical for Integrin αvβ3-Targeted Radionuclide Therapy” (Pharmaceutics, 2022)
Read-outs that look alike come from different tables or passages of the source.

Assays:
[1] = design: species or system C57BL/6 mice; conditions: mouse, in vivo
Experimental: Female KM mice were randomly divided into three groups (n = 5). […] Blood samples obtained from the canthus vein were collected at different time points post injection (p.i.), weighed, and evaluated using a γ-counter. The results are presented as the percentage injected activity per gram (%IA/g). Nonlinear regression (curve fit) followed by two phase decay was performed using GraphPad Prism version 9.0.0 for Windows, GraphPad Software, San Diego, CA, USA, www.graphpad.com (accessed on 22 May 2022). And then the half-lives values were calculated and determined. Blood clearance studies were performed in normal KM mice. […] Blood clearance studies were also performed in C57BL/6 mice.

[2] = design: species or system KM mice; conditions: mouse, in vivo, iv
Experimental: Female KM mice were randomly divided into three groups (n = 5). […] Blood samples obtained from the canthus vein were collected at different time points post injection (p.i.), weighed, and evaluated using a γ-counter. The results are presented as the percentage injected activity per gram (%IA/g). Nonlinear regression (curve fit) followed by two phase decay was performed using GraphPad Prism version 9.0.0 for Windows, GraphPad Software, San Diego, CA, USA, www.graphpad.com (accessed on 22 May 2022). And then the half-lives values were calculated and determined.

physchem = format: physicochemical
Experimental: Briefly, the radiopharmaceuticals were prepared and purified with Sep-Pak-C18 cartridges and then dissolved in a mixed solution of 5 mL n-octanol and 5 mL PBS. After vortexing for 1 h, the mixture was centrifuged at 10,000 rpm for 10 min. Samples (100 μL, n = 4) from the n-octanol and PBS components were collected and counted using a γ-counter. The […] were calculated as the logarithm of the n-octanol/PBS ratio.

SMILES: CCCCCCCCCCCCCCCC(=O)N[C@@H](CCC(=O)NCCCC[C@H](NC(=O)CN1CCN(CC(=O)O)CCN(CC(=O)O)CCN(CC(=O)O)CC1)C(=O)NCCOCCOCCOCCOCCC(=O)N[C@@H](CCC(=O)NCCOCCOCCOCCOCCC(=O)NCCCC[C@@H]1NC(=O)[C@@H](Cc2ccccc2)NC(=O)[C@H](CC(=O)O)NC(=O)CNC(=O)[C@H](CCCNC(=N)N)NC1=O)C(=O)NCCOCCOCCOCCOCCC(=O)NCCCC[C@@H]1NC(=O)[C@@H](Cc2ccccc2)NC(=O)[C@H](CC(=O)O)NC(=O)CNC(=O)[C@H](CCCNC(=N)N)NC1=O)C(=O)O [^177Lu-Palm-3PRGD2, [^177Lu]Lu-DOTA-Palm-3PRGD2, metal not drawn]
- Half-Life (T1/2α) [1]: 2.08 min
- Half-Life (T1/2β) [1]: 63.71 min
- Half-Life (T1/2α) [2]: 4.49 min
- Half-Life (T1/2β) [2]: 73.42 min
- logD (physchem): -1.25 ± 0.07
